What was measured:
[1] = GdnHCl- and urea-induced unfolding at 25° C. by circular dichroism (Example 2); type: physicochemical; settings: CD
Procedure: The thermodynamic stability of A1 and of RCAM A1 was determined from GdnHCl and urea induced unfolding measured via CD and FL at 25° Celsius (FIG. 14). […] Complete unfolding of A1 and of RCAM A1 occurs in GdnHCl but not in urea. However, in presence of urea, a small expansion of RCAM A1 compared to A1 in its intermediate state is observed.
(§1) Urea and GdnHCl induced unfolding of A1 and of RCAM A1 at 25° Celsius was monitored via CD at 222 nm on an Aviv Biomedical Model 420C circular dichroism spectrometer. A 1 mm quartz cuvette and protein concentrations of 5 or 10 μM were used. Samples were equilibrated in their urea or GdnHCl containing buffer at 25° Celsius overnight. CD-signal was averaged for 5 to 10 min using an integration time of 1 s. CD-spectra were measured at 20° Celsius using 0.1 or 1 mm quartz cells with a step width of 1 nm between 190 and 260 nm with an integration time of 20 s and a bandwidth of 1 nm. CD-spectra in the near UV range (260-360 nm) were recorded using a 5 cm quartz cell with a 120 s integration time. Transition curves and protein spectra were corrected for the CD Signal of the corresponding buffer.

platelet GP1bα = experiment: Platelet pause times and translocation velocities on immobilized A1 under shear flow, parallel-plate flow chamber (Example 1); type: cell-based, human; settings: as a function of shear rate
From the text: To understand the effect of the N-terminal peptide on the function of the A1-domain of vWF, the protein was expressed with (A1-1238) and without the N-terminal peptide (A1-1261). The inventor used a flow chamber to measure the dynamics of platelet interactions with A1-1238 and A1-1261. Each domain variant was immobilized on glass slides with a modified Cu^2+ chelating chemistry that enabled surface capture via the N-terminally fused histidine tag. This method ensured reproducible capture of the proteins eliminating possible structural issues associated with nonspecific immobilization on plastic or glass. The slides were completely inert to platelets. Next, 1 mL of citrated whole blood followed by Tris buffered saline was perfused at low shear to enable platelets to attach to the surface immobilized domains. After red cells were perfused away with buffer, the translocation of the remaining attached platelets over the surfaces was recorded at each shear rate and the velocities and pause times calculated from the coordinate data of each platelet on the surface as described in the methods. […] In addition, the translocation velocities were increased for A1-1238 relative to A1-1261. To determine if this N-terminal sequence could inhibit the catch bond when free in solution, the inventor incubated surface immobilized A1-1261 with excess free peptide and added the free peptide to 1 mL of whole blood and to our perfusion buffer and performed the assay.
Determination of platelet pause times. Determination of platelet pause times A Glycotech† rectangular parallel-plate flow chamber was mounted to slides with a chelated Cu 21 surface obtained from Microsurfaces Inc. # to which the A1-1261 and A1-1238 domains in TBS were immobilized by the 63His-Tag. Citrated whole blood (1 mL) obtained from informed consent of healthy donors with approval from the Baylor College of Medicine institutional review board followed by buffer was perfused through the chamber at 300s21 for A1-1261 and 700s21 for A1-1238 shear rate to attach platelets to the surface immobilized proteins using a syringe driven variable flow rate pump. The shear was increased incrementally and 1 min movies were recorded at 25 frames/s in phase contrast with 232 pixel binning on a Zeiss Axiocam MRm camera attached to a Zeiss Axio Observer D1 inverted microscope. Tracking analysis was performed using Mediacybernetics ImagePro Premier§. The resulting X-Y coordinate data for each platelet track was differentiated into instantaneous velocities using a Savitzky-Golay algorithm (Savitzky:1964) with a five data point window size and a second-order polynomial implemented into a Mathamatica notebook. These platelet tracks were retained for statistical analysis if the platelet was present for at least 1 s and travelled a total distance greater than 1 lm. Distance travelled in pixels was converted to lm given the camera pixel size=6.45 μm^2, pixel binning, and microscope magnification=400×. Pause times were determined by the amount of time (seconds) a platelets velocity was =0±0.13 μm/s, within the noise. Pause times for all platelet tracks are reported as the mean of the medians. Examples of this analysis for individual platelets and for multiple platelets are provided in the Supporting Information.
Frame by frame platelet trajectory analysis. Tracking coordinates of individual platelets in units of pixels were exported from ImagePro Premier as a text file and imported into a Mathematica notebook that calculates a Savitzky-Golay first derivative of the total distance traveled over time (Savitzky:1964). The distance was calculated from the X and Y coordinates with the following equation.
Pause times were determined from the length of time the platelet velocity remained within 0±4 pixel/sec=0.129 μm/sec as illustrated in FIG. 8B. Median pause times were calculated from velocity time profiles for all platelet tracks, stored in a list and translated to histograms for multiple platelets. […]

[2] = Secondary structure contribution calculated from CD-spectra (CDNN); type: physicochemical
Procedure: Fluorescence and circular dichroism spectra of A1 and of RCAM A1 were measured to compare the basic spectroscopic properties of the two protein variants (FIG. 13). The fluorescence spectrum of native A1 has a relatively low intensity with λmax of ˜345 nm. In presence of 2 M GdnHCl the fluorescence intensity increases as the interior of the protein becomes solvent accessible and a red shift of the spectrum to ˜351 nm occurs. […] Nevertheless, RCAM A1 is still retains significant secondary structure content in solution; the distribution of which is summarized in Table 1. In the near UV, the CD of disulfide-intact A1 show a well-defined spectral banding pattern between 260 and 300 nm indicating significant tertiary structure content that is absent in RCAM A1.
as §1

[3] = calculated from CD-spectra, CDNN

## A1-1238: Recombinant human vWF A1 domain, amino acids Q1238-P1471, with N-terminal 6×His-Tag, disulfide intact
[1]; GdnHCl
  cm, I ⇄ D: 4.40 ± 0.02 M
  cm, N ⇄ I: 0.819 ± 0.006 M
  m-value, I ⇄ D: −6.66 ± 0.30 kJ/mol/M
  m-value, N ⇄ I: −18.67 ± 0.76 kJ/mol/M
  ΔG^0, I ⇄ D: 7.003 ± 0.315 kcal/mol
  ΔG^0, N ⇄ I: 3.654 ± 0.151 kcal/mol
[1]; Urea
  cm, I ⇄ D: 10.03 ± 0.19 M
  cm, N ⇄ I: 2.85 ± 0.02 M
  m-value, I ⇄ D: −3.35 ± 0.62 kJ/mol/M
  m-value, N ⇄ I: −4.70 ± 0.17 kJ/mol/M
  ΔG^0, I ⇄ D: 8.03 ± 1.49 kcal/mol
  ΔG^0, N ⇄ I: 3.203 ± 0.117 kcal/mol
Platelet GP1bα
  Platelet translocation velocities on immobilized domain (comparison): increased
[2]; [3]
  % α-Helix: 38.0%
  % β-sheet: 15.6%
[2]; β-turns and random coil structure
  % Remainder: 46.4%

— patent US20150160214A1, “Quantitation of Cellular Adhesion Dynamics Across Immobilized Receptors Under Rheological Shear Flow” (Mayo Foundation for Medical Education and Research, priority 2013, published 2015)
